In the DeepSol protein solubility set:

test: soluble on expression in E. coli; label from the status in PepcDB or PDB records

Sequence | soluble on expression in E. coli
MRLLVTGGAGFIGSHFVRQLLAGAYPDVPADEVIVLDSLTYAGNRANLAPVDADPRLRFVHGDIRDAGLLARELRGVDAIVHFAAESHVDRSIAGASVFTETNVQGTQTLLQCAVDAGVGRVVHVSTNQVYGSIDSGSWTESSPLEPNSPYAASKAGSDLVARAYHRTYGLDVRITRCCNNYGPYQHPEKLIPLFVTNLLDGGTLPLYGDGANVREWVHTDDHCRGIALVLAGGRAGEIYHIGGGLELTNRELTGILLDSLGADWSSVRKVADRKGHDLRYSLDGGKIERELGYRPQVSFADGLARTVRWYRENRGWWEPLKATAPQLPATAVEVSA | soluble
MGSDKIHHHHHHMRIFFLDQSGKPGGAELCLIDIAKPYSHSALVGLFADGPFKDLLEQNHIPVEILATQTIQVSKESSLAQGLKSLGQLAPLITKVIKKAREYDLIYANTQKALVVGALASFFSRRPLVYHLHDILSTEHFSQTNLRIAINLANRCASLVIANSQASKTAFIQAGGRSDIVEVVYNGFDLKIYQTDEPGINQLQQKLGLQGKFVVGHFSRLAPWKGQHILIDALAKCPPEVTVILVGDALFGEQDYAQKLHKQVTDLGLENRVKFLGFRSDIPQLMAACDLVAHTSTSPEPFGRVIVEAMLCGKPVVAAKAGGVMELVEHGLNGFLVTPGEPQELAQVIITCLQETEITATIANNARTTASRRFDVATINQQIAQLLSHRF | not soluble
MSRKKMGLLVMAMGTPYKEEDIERYYTHIRRGRKPEPEMLQDLKDRYEAIGGISPLAQITEQQAHNLEQHLNEIQDEITFKAYIGLKHIEPFIEDAVAEMHKDGITEAVSIVLAPHFSTFSVQSYNKRAKEEAEKLGGLTITSVESWYDEPKFVTYWVDRVKETYASMPEDERENAMLIVSAHSLPEKIKEFGDPYPDQLHESAKLIAEGAGVSEYAVGWQSEGNTPDPWLGPDVQDLTRDLFEQKGYQAFVYVPVGFVADHLEVLYDNDYECKVVTDDIGASYYRPEMPNAKPEFIDALATVVLKKLGR | soluble
MLKVAIAEDDFRVAQIQEEFLSKIKDVTVIGKALNAKETIELLQKEEIDLLLLDNYLPDGIGTDLLPQIHADFPNVDVIMVTAANENYMLEKAIRNGVSNYLIKPVTLEKFVRTIEDYKRKKQLLHSNNEVNQALIDNFFGTSQTQDIKNLPTGVDPLTLQKVKGIIKGFEEGITIEEMGEQMGASRTTARRYLEYLVATNECTVEYKYGIIGRPERKYRIGRGL | not soluble
MRGSHHHHHHGSRVMVIGGDGYCGWATALHLSKKNYEVCIVDNLVRRLFDHQLGLESLTPIASIHDRISRWKALTGKSIELYVGDICDFEFLAESFKSFEPDSVVHFGEQRSAPYSMIDRSRAVYTQHNNVIGTLNVLFAIKEFGEECHLVKLGAMGEYGTPNIDIEEGYITITHNGRTDTLPYPKQASSFYHLSKVHDSHNIAFTCKAWGIRATDLNQGVVYGVKTDETEMHEELRNRLDYDAVFGTALNRFCVQAAVGHPLTVYGKGGQTRGYLDIRDTVQCVEIAIANPAKAGEFRVFNQFTEQFSVNELASLVTKAGSKLGLDVKKMTVPNPRVEAEEHYYNAKHTKLMELGLEPHYLSDSLLDSLLNFAVQFKDRVDTKQIMPSVSWKKIGVKTKSMTT | soluble
MGSDKIHHHHHHMADISIEQSMQLFELQPGKSLDLQINNPVSLRLKLPLIGYELGKYIILKYPKSANTSEYKDVLIEGNVLIVRYLMEGNKGECFAFRSSIKNITQYPEKFIFIEYPNKIENRQLRLQQRTSIHLPAIIMLESSGDNKKTQINGIIGDISAKGCGFTFKTKSTSTKVNKRDIFVCLRSPIDGEVQIPARVCNSRNDNGTVNVGIQFIDNEKLVPKLLSELFIENTMS | not soluble
MLQNRLNKARSHAEKHDVDAIVFFNMSNVRYLSGFTGSDGAVVLGRDASWFLTDSRYTTQASRQVVGLPTVEYRIKLDGITELVREQGFRRIGFESEHTAFAVYESLRQKLPKTELVPIGEELAQLRLIKDPSECELLSRVARLASEALLSILPLVKPGAVERELALELEFAMRRAGAENASFDFIVASGERGSLPHGRASDKALAAGELVTIDFGARYEGYCSDETVTVAVGVPDERQCQIYGIVKEAHDRAIAAVRPGAELREIDRIARGYIEEQGYGAFFGHGLGHGVGLDVHEKPVVSPRGEGVAAVGMVFTIEPGIYIPGWGGVRIEDTVIVTEDGCRPITMIPKELMIL | not soluble
MGSDKIHHHHHHMDAAAAPERIDLAGLVADLNALLRLKTTVIGMKLFRTVAEMEAVPKIRRPNAIHTTDQIVSMASRLGWTVGITAADLVGEQCRAVIGLAPQDAAWLAGRSYVGVWHATPEDASARQQALDVVPFGHHQAMAVSPLASGRLDPPDICLVYATPGQMIILINGLQYAGYKKFEWSVVGETACADSWGRALKTGEPSLSLPCFAERRYGGVPDEEMLMALSPAHLAKAIDGMKQLAKNGLRYPIAPYGIQADVRAGMGVSYGNK | not soluble
MTTLTLNTSLLSSRRILAAFSGGLDSTVLLHQLVLWRERHPDVTLRAIHIHHGLSPHADSWVRHCETVCERWQVPLVVERVTLADNGLGIEAHAREARYRAFAQTLLPGEVLATAQHLDDQCETFLLALKRGSGPAGLSAMGERSPFAGTLLLRPLLRETRKTLEQWAVRHGLCWIEDESNQDDAYDRNFLRLRALPLLQQRWPHFPAAVARSATLCAEQERLLDELLASDLTDCITAEGTLRLSPLMSMSDVRRAAILRRWLAMRNAPMPSRDALERIWQEVALARDDASPCLRFGDHEIRRYQSQLWWIKSVAGQHETTVAWPVWQTPLALPAGLGTVQLVPGGELRRPREEESVSIRFKAPGVLHIVGRNGGRKLKKIWQEQGIPPWRRDTTPLLFYGETLIAAAGVFVTREGAAEDKEGVSLVWHA | not soluble
GSRPGPASQLPRFVRVNTLKTCSDDVVDYFKRQGFSYQGRASSLDDLRALKGKHFLLDPLMPELLVFPAQTDLHEHPLYRAGHLILQDRASCLPAMLLDPPPGSHVIDACAAPGNKTSHLAALLKNQGKIFAFDLDAKRLASMATLLARAGVSCCELAEEDFLAVSPSDPRYHEVHYILLDPSCSGSGMPSRQLEEPGAGTPSPVRLHALAGFQQRALCHALTFPSLQRLVYSTCSLCQEENEDVVRDALQQNPGAFRLAPALPAWPHRGLSTFPGAEHCLRASPETTLSSGFFVAVIERVEVPRRARG | soluble
MAKQIKGIAASDGVAIAKAYLLVEPDLSFDNESVTDTDAEVAKFNGALNKSKVELTKIRNNAEKQLGADKAAIFDAHLLVLEDPELIQPIEDKIKNESVNAAQALTDVSNQFITIFESMDNEYMAERAADIRDVSKRVLAHILGVELPNPSIVDESVVIIGNDLTPSDTAQLNKEYVQGFVTNIGGRTSHSAIMSRSLEIPAVVGTKSITEEVEAGDTIVVDGMTGDVLINPSDEVIAEYQEKRENFFKDKQELQKLRDAESVTADGHHVELAANIGTPNDLPGVIENGAEGIGLYRTEFLYMGRDQMPTEEEQFEAYKAVLEAMKGKRVVVRTLDIGGDKELPYLDLPEEMNPFLGYRAIRLCLDQPEIFRPQLRALLRASVFGKLNIMFPMVATIQEFRDAKALLEEERANLKNEGYEVADDIELGIMVEIPSTAALADIFAKEVDFFSIGTNDLIQYTMAADRMSERVSYLYQPYNPAILRLVKQVIEASHAEGKWTGMCGEMAGDQTAIPLLLGLGLDEFSMSATSILKARRLIRSLNESEMKELSERAVQCATSEEVVDLVEEYTKNA | soluble
MTTCGEFLVKQLEAWGVETVFGIPGVHTVELYRGLPGSRIRHVTPRHEQGAGFMADGYARVTGKPGVCFIITGPGMTNILTAMAQAYADSIPMLVISSVNERARLAHGNGYLHELPNQRNLVGNVCAFSHTLMSAEELPAVLARAFAVFDSERPRPVHIELPLDVITAPAEHLALRPRTVTSRPAPALAPLREAAARLRNAKKPLLLLGGGCVEAAAEARALAAALDAPTALTINAKGLLPADHPLLLGSNQSCVPVRELATEADVVLAIGTELGETDYDVVFDGGFALDGELIRIDIDPQQLMRNYTPSLAIHSDARLAMRVLLAELPGGEASPDSPGARRAAAVRQRLAEDFAGWSHYRQLFAAILAEWPDARFVGDSTQTVYSGNHLVDLDEPRRWFNASTGYGTLGYGLPAAIGAKLGEPGRPVVSLMGDGGLQFTLPELASAVEAKVGIVVLLWNNHGYGEIKRYMERREITPLGVDIYTPDFLAIARGFGCAAERARDLEHLRELLRGAPADRPLIVEVLQAAPFHP | not soluble
GHHHHHHAIAENLYFQSSRNPEVLWAQRSDKVYLTVALPDAKDISVKCEPQGLFSFSALGAQGERFEFSLELYGKIMTEYRKNVGLRNIIFSIQKEERSWWTRLLKSEEKPAPYIKVDWNKWCDEDEEVNSETASDDESAFVNQDSESSDDDGLLYLPDLEKARNK | soluble
MAHHHHHHMRILHKLGKNVFQTARRSFSLVTKQAHDFTAQGLNKNNEIINVQLSSYIGKKYCCLLFYPLNYTFVCPTEIIEFNKHVKSFEEKNVELLGISVDSVYSHLAWKNMPIEKGGIGNVNFTLVSDLNKEISKMYNVLYENSFALRGLFIIDLQGKVRHQTVNDLPLGRSVDEVLRTIDSIIHVDKTGDVCPINWKKGAKSFQPTNDSLLNYLNTEVKKE | soluble
MSQQYVYSMLRVSKVVPPQKTIIKDISLSFFPGAKIGLLGLNGAGKSTVLRIMAGVDKEFEGEAVPMGGIKIGYLPQEPELDPEKTVREEVESGLGEVAAAQKRLEEVYAEYANPDADFDALAEEQGRLEAIIAAGSSTGGGAEHELEIAADALRLPEW | not soluble
MKSKRLSLVLMTAALGLTACATTQSPTGRSQTLLYSSSQMQQMGDASFAEMKKQQKISGNKKLTQYVNCVANRVTAVLPDQTQKWDVVLFDSEQVNAFALPGGHIGVYTGLLKVASTPDQLATVLGHEVAHVLAQHGNEQVSRSQMTGMGMQIADAALGAGGVSNRDLYMSALGLGAQVGVILPFGRAQESEADIMGLELMARAGFDPAQSVVLWQNMSKAGGGKGPELLSTHPSNNNRIAQLEQLQGQMQPLYQSAKANIKNQCAAPKLEHHHHHH | not soluble
MRIGIISVGPGNIMNLYRGVKRASENFEDVSIELVESPRNDLYDLLFIPGVGHFGEGMRRLRENDLIDFVRKHVEDERYVVGVCLGMQLLFEESEEAPGVKGLSLIEGNVVKLRSRRLPHMGWNEVIFKDTFPNGYYYFVHTYRAVCEEEHVLGTTEYDGEIFPSAVRKGRILGFQFHPEKSSKIGRKLLEKVIECSLSRR | soluble
ADKNPGSENMTNTIGPHDRGGSSPIYNILNSYLTAYNGSHHLYDRMSFLCLSSQNTLNGACPSSDAPGTATIDGETNITLQFTEKRSLIKRELQIKGYKQFLFKNANCPSKLALNSSHFQCNREQASGATLSLYIPAGELNKLPFGGVWNAVLKLNVKRRYDTTYGTYTINITVNLTDKGNIQIWLPQFKSNARVDLNLRPTGGGTYIGRNSVDMCFYDGYSTNSSSLEIRFQDDNSKSDGKFYLKKINDDSKELVYTLSLLLAGKNLTPTNGQALNINTASLETNWNRITAVTMPEISVPVLCWPGRLQLDAKVKNPEAGQYMGNIKITFTPSSQTLDNKQVEKNITVTASVDPVIDLLQADGNALPSAVKLAYSPASKTFESYRVMTQVHTNDATKKVIVKLADTPQLTDVLNSTVQMPISVSWGGQVLSTTAKEFEAAALGYSASGVNGVSSSQELVISAAPSTAGTAPTAGNYSGVVSLVMTLGSDNKQVEKNITVTASVDPVIDLLLEHHHHHH | soluble
MDHHSKAKELLQQRDELDGKIKELMLVLETNNSTMDSPLLDAEGYPLNTIDVYAVRHARHDLICLRNDRAALTEKIVVEMENENKEVSGQTATSEEKPVHRTSNEPFVKISSVVELSPADIGGFRKDDLIIQYGNLHHGNFNDMQEVAQITKQSEDKIIRVTVIRENRPVRLEICPKKWSGPGLLGCNIVPISGANV | not soluble
